{"source": "patent US20170102393A1", "binders": {"B1": {"name": "rhuMAb Beta7, recombinant humanized monoclonal anti-beta7 integrin antibody (antibody, from a related filing, V domains shown)", "VH": "EVQLVESGGGLVQPGGSLRLSCAASGFFITNNYWGWVRQAPGKGLEWVGYISYSGSTSYNPSLKSRFTISRDTSKNTFYLQMNSLRAEDTAVYYCARTGSSGYFDFWGQGTLVTVSS", "VL": "DIQMTQSPSSLSASVGDRVTITCRASESVDDLLHWYQQKPGKAPKLLIKYASQSISGVPSRFSGSGSGTDFTLTISSLQPEDFATYYCQQGNSLPNTFGQGTKVEIKR"}}, "key": {"[1]": {"molecular_target": "α4β7 integrin (Homo sapiens (Human)) (UniProt P13612)", "assay": "blocking of α4β7 interactions with MadCAM-1, VCAM-1 and fibronectin (range told for the three ligands); assay not described"}, "[2]": {"molecular_target": "αEβ7 integrin (Homo sapiens (Human)) (UniProt P38570)", "sequence (P38570 19-1179 limits assumed, form in doubt, chain 1 of 2)": "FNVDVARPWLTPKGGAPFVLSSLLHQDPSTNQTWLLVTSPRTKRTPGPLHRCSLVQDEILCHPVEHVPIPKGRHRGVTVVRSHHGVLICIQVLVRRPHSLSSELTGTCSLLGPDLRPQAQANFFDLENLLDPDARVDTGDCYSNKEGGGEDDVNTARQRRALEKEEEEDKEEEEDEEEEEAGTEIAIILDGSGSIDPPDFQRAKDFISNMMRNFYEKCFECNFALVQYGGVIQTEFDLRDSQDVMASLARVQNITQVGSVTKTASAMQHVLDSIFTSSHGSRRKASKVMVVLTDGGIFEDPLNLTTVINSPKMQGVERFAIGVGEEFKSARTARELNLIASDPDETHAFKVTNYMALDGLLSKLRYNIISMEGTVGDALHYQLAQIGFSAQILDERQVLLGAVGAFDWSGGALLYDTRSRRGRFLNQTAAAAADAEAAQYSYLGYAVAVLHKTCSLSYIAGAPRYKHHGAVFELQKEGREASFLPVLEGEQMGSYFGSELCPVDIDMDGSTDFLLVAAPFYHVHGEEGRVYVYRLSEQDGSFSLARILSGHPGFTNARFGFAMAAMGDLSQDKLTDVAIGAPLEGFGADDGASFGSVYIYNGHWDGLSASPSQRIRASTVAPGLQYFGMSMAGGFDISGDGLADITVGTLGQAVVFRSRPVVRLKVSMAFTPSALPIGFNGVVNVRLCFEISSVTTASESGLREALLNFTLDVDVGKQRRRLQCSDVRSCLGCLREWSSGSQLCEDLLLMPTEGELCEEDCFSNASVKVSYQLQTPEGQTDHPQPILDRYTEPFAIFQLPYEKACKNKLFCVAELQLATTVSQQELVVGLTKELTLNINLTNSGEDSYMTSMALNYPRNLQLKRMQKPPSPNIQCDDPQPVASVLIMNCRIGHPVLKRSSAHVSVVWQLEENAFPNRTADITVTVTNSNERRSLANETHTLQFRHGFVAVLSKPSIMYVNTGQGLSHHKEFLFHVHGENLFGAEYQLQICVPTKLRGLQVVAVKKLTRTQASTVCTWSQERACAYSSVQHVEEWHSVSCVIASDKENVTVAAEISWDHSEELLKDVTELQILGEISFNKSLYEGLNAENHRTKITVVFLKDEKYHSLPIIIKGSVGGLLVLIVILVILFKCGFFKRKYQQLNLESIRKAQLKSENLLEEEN", "sequence (beta, as listed by the source limits assumed, form in doubt, chain 2 of 2)": "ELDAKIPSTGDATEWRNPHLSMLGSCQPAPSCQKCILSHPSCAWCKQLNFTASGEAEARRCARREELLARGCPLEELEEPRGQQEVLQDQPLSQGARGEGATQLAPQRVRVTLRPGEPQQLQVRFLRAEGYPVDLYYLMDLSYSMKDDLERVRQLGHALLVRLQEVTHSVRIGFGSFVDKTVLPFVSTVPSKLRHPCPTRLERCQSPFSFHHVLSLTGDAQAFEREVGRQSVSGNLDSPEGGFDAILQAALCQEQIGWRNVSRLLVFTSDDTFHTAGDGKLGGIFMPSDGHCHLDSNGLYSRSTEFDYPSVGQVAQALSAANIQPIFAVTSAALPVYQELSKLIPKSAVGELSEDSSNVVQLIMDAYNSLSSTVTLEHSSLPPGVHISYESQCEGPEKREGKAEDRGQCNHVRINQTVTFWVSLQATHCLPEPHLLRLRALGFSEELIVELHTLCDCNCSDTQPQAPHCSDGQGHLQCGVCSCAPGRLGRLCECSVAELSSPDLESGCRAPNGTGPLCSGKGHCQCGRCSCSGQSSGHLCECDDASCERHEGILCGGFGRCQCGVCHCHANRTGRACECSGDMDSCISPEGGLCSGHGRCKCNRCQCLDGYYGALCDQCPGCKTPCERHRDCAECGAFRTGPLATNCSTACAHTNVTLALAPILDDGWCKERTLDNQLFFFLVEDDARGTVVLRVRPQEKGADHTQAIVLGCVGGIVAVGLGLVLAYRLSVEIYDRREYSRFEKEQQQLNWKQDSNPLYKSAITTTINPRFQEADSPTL", "assay": "blocking of E-cadherin binding to αEβ7; assay not described"}, "[3]": {"molecular_target": "integrin β7 (β7 receptor) on cynomolgus monkey peripheral-blood T cells / lymphocytes (cynomolgus monkey (Macaca fascicularis))", "assay": "β7 receptor occupancy by flow cytometry against serum concentration, dosed cynomolgus monkeys"}, "[4]": {"molecular_target": "integrin β7 (β7 receptor) on cynomolgus monkey peripheral-blood T cells / lymphocytes (cynomolgus monkey (Macaca fascicularis))", "assay": "cell-based or functional assay"}}}
{"binder": "B1", "values": [{"measurement": "IC50", "setting": "[1]", "result": "0.07 to 0.1", "unit": "nM"}, {"measurement": "IC50", "setting": "[2]", "result": 5, "unit": "nM"}, {"measurement": "serum concentration that maintains complete β7-receptor saturation", "setting": "[3]", "result": "1 to 10", "unit": "µg/mL"}, {"measurement": "serum level below which available β7 is detected (desaturation)", "setting": "[3]", "result": 10, "unit": "µg/mL"}, {"measurement": "CD45RA+ β7intermediate T cells in peripheral blood, increase over baseline, four weekly doses of 25 mg/kg, cynomolgus monkeys", "setting": "[4]", "result": 2.5, "unit": "fold"}, {"measurement": "CD45RA- β7high T cells in peripheral blood, increase over baseline, four weekly doses of 25 mg/kg, cynomolgus monkeys", "setting": "[4]", "result": 5, "unit": "fold"}, {"measurement": "group mean CD45RA- β7high CD4+ lymphocytes in peripheral blood, increase over baseline, 5 mg/kg IV weekly, cynomolgus monkeys", "setting": "[4]", "result": "4 to 5", "unit": "fold"}, {"measurement": "group mean CD45RA- β7high CD4+ lymphocytes in peripheral blood, increase over baseline, 15 or 50 mg/kg IV or SC weekly, cynomolgus monkeys", "setting": "[4]", "result": "5 to 6", "unit": "fold"}]}
